Values of other authors as cited in article PMC12730246.

Molecular target: TKS4 peptide (Homo sapiens) (UniProt A1X283)

Substance: TKS4 tandem SH3 tandem SH3 (from UniProt A1X283)
- Kd: 12 µM
